Target: gp140ΔCFI B(C-HR2) ext 2F5 (HIV-1 strain HXB2 (clade B); HIV-1 strain BaL (clade B); HIV-1; HIV-1 strain 97ZA012 (clade C)) (UniProt P04578)
Assay: ELISA on Env from transfected 293 cells

Question: For monoclonal antibody 2F5, which fold higher reactivity than the parental clade B gp140ΔCFI is on record?
Answer: The fold higher reactivity than the parental clade B gp140ΔCFI was 20 to 30 fold.

Reference: patent US20110274721A1
